Results reported in publication PMC8767022, “Mechanism and Structural Insights Into a Novel Esterase, E53, Isolated From Erythrobacter longus” (Frontiers in Microbiology, 2022).

B1: E53 (Erythrobacter longus; F191Y) (protein)
chain: MTDTPFIRPDMKAFLEAIAAMAGPTLAEMTLEEARASYVALHGMADRPARELAVIRNLSCPGPAGDIPLRLYDARESREAGPVITFYHGGGFVIGDLDTHHNLCTEIAALMDLPVVAVDYRLAPEHPFPAAIEDCEAATRWVASSPSELGRTASGVIPIGDSAGGNATIVVSQLLGAKPADVPVVLQVPIYPLASDAVGSASLEAFAEGFVLTKASIEFFDTAYKADRADPRGFPILGDHTAAPPTIVATASLDPIRDSGRDYAKALVEAGRDVVYLEMEGVTHSFTNIRAAVPSTQGDLERIIAAMKMMLGTA
notes: full length, 314 residues; N-terminal His6-SUMO tag (pSMT3) removed with Ulp1; E. coli BL21(DE3); monomer
B2: E53 (Erythrobacter longus; A167L) (protein)
chain: MTDTPFIRPDMKAFLEAIAAMAGPTLAEMTLEEARASYVALHGMADRPARELAVIRNLSCPGPAGDIPLRLYDARESREAGPVITFYHGGGFVIGDLDTHHNLCTEIAALMDLPVVAVDYRLAPEHPFPAAIEDCEAATRWVASSPSELGRTASGVIPIGDSAGGNLTIVVSQLLGAKPADVPVVLQVPIFPLASDAVGSASLEAFAEGFVLTKASIEFFDTAYKADRADPRGFPILGDHTAAPPTIVATASLDPIRDSGRDYAKALVEAGRDVVYLEMEGVTHSFTNIRAAVPSTQGDLERIIAAMKMMLGTA
notes: as for B1
B3: E53 (Erythrobacter longus; I256L) (protein)
chain: MTDTPFIRPDMKAFLEAIAAMAGPTLAEMTLEEARASYVALHGMADRPARELAVIRNLSCPGPAGDIPLRLYDARESREAGPVITFYHGGGFVIGDLDTHHNLCTEIAALMDLPVVAVDYRLAPEHPFPAAIEDCEAATRWVASSPSELGRTASGVIPIGDSAGGNATIVVSQLLGAKPADVPVVLQVPIFPLASDAVGSASLEAFAEGFVLTKASIEFFDTAYKADRADPRGFPILGDHTAAPPTIVATASLDPLRDSGRDYAKALVEAGRDVVYLEMEGVTHSFTNIRAAVPSTQGDLERIIAAMKMMLGTA
notes: as for B1
B4: E53 (Erythrobacter longus; N166A) (protein)
chain: MTDTPFIRPDMKAFLEAIAAMAGPTLAEMTLEEARASYVALHGMADRPARELAVIRNLSCPGPAGDIPLRLYDARESREAGPVITFYHGGGFVIGDLDTHHNLCTEIAALMDLPVVAVDYRLAPEHPFPAAIEDCEAATRWVASSPSELGRTASGVIPIGDSAGGAATIVVSQLLGAKPADVPVVLQVPIFPLASDAVGSASLEAFAEGFVLTKASIEFFDTAYKADRADPRGFPILGDHTAAPPTIVATASLDPIRDSGRDYAKALVEAGRDVVYLEMEGVTHSFTNIRAAVPSTQGDLERIIAAMKMMLGTA
notes: as for B1
B5: E53 (Erythrobacter longus; V211A) (protein)
chain: MTDTPFIRPDMKAFLEAIAAMAGPTLAEMTLEEARASYVALHGMADRPARELAVIRNLSCPGPAGDIPLRLYDARESREAGPVITFYHGGGFVIGDLDTHHNLCTEIAALMDLPVVAVDYRLAPEHPFPAAIEDCEAATRWVASSPSELGRTASGVIPIGDSAGGNATIVVSQLLGAKPADVPVVLQVPIFPLASDAVGSASLEAFAEGFALTKASIEFFDTAYKADRADPRGFPILGDHTAAPPTIVATASLDPIRDSGRDYAKALVEAGRDVVYLEMEGVTHSFTNIRAAVPSTQGDLERIIAAMKMMLGTA
notes: as for B1
B6: E53 (Erythrobacter longus; S216A) (protein)
chain: MTDTPFIRPDMKAFLEAIAAMAGPTLAEMTLEEARASYVALHGMADRPARELAVIRNLSCPGPAGDIPLRLYDARESREAGPVITFYHGGGFVIGDLDTHHNLCTEIAALMDLPVVAVDYRLAPEHPFPAAIEDCEAATRWVASSPSELGRTASGVIPIGDSAGGNATIVVSQLLGAKPADVPVVLQVPIFPLASDAVGSASLEAFAEGFVLTKAAIEFFDTAYKADRADPRGFPILGDHTAAPPTIVATASLDPIRDSGRDYAKALVEAGRDVVYLEMEGVTHSFTNIRAAVPSTQGDLERIIAAMKMMLGTA
notes: as for B1
B7: E53 (Erythrobacter longus) (protein)
chain: MTDTPFIRPDMKAFLEAIAAMAGPTLAEMTLEEARASYVALHGMADRPARELAVIRNLSCPGPAGDIPLRLYDARESREAGPVITFYHGGGFVIGDLDTHHNLCTEIAALMDLPVVAVDYRLAPEHPFPAAIEDCEAATRWVASSPSELGRTASGVIPIGDSAGGNATIVVSQLLGAKPADVPVVLQVPIFPLASDAVGSASLEAFAEGFVLTKASIEFFDTAYKADRADPRGFPILGDHTAAPPTIVATASLDPIRDSGRDYAKALVEAGRDVVYLEMEGVTHSFTNIRAAVPSTQGDLERIIAAMKMMLGTA
notes: as for B1

What was measured:
E53 [1] = target: T1, E53 (Erythrobacter longus, UniProt A0A074MDU6); test: X-ray crystal structure, substrate soak; type: binding; details: pH 6.5 crystals; active site
T1 construct: gene EH31_02760; full length, 314 residues; N-terminal His6-SUMO tag (pSMT3) removed with Ulp1; E. coli BL21(DE3); monomer

E53 [2] = target: T2, E53 (Erythrobacter longus, UniProt A0A074MDU6, I256L); test: X-ray crystal structure, substrate soak; type: binding; details: pH 6.5 crystals; active site
T2 construct: gene EH31_02760; full length, 314 residues; N-terminal His6-SUMO tag (pSMT3) removed with Ulp1; E. coli BL21(DE3); monomer

E53 [3] = target: T3, E53 (Erythrobacter longus, UniProt A0A074MDU6, S285G); test: X-ray crystal structure, substrate soak; type: binding; details: pH 6.5 crystals; active site
T3 construct: gene EH31_02760; full length, 314 residues; N-terminal His6-SUMO tag (pSMT3) removed with Ulp1; E. coli BL21(DE3); monomer
T3 sequence (A0A074MDU6 entry or part of it S285G): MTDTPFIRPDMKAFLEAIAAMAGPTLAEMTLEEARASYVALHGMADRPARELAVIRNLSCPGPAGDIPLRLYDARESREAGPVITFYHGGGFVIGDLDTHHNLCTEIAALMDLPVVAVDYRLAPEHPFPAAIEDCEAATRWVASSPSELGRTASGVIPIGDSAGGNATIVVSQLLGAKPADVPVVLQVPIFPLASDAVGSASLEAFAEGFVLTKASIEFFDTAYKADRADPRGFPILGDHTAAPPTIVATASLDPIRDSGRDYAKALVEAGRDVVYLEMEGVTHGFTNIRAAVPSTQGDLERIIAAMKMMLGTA

purified protein = substrate: CCCC(=O)Oc1ccc([N+](=O)[O-])cc1; test: purified protein; type: biochemical, Erythrobacter longus; details: Tris-HCl pH 9.0 (also pH 7.0), 40 °C, 0.05-4.00 mM substrate

| Molecule | Km (purified protein) | other results |
| --- | --- | --- |
| CCCCCC(=O)Oc1ccc([N+](=O)[O-])cc1 [C6, p-NP hexanoate] |  | X-ray crystal structure, substrate soak (E53 [1]): observed in the crystal structures of E53, I256L, and S285G; X-ray crystal structure, substrate soak (E53 [2]): observed in the crystal structures of E53, I256L, and S285G; X-ray crystal structure, substrate soak (E53 [3]): observed in the crystal structures of E53, I256L, and S285G |
| B1 | 210 ± 20 µM |  |
| B2 | 150 ± 10 µM |  |
| B3 | 230 ± 20 µM |  |
| B4 | 460 ± 40 µM |  |
| B5 | 520 ± 30 µM |  |
| B6 | 420 ± 30 µM |  |
| B7 | 330 ± 30 µM |  |
